Test system: SmLux
Experiment: Computationally generated LgLux variants expressed in E. coli, tested in lysates with SmLux and substrate 1c
Assay type: biochemical
Details: 50 uM substrate 1c; for Fold change upon SmLux peptide addition: 20 uM SmLux; for Baseline Signal (Normalized by expression): before SmLux peptide addition
Description: LgLux sequences were designed computationally, and their activity measured as depicted schematically in FIG. 45.
A library of the computationally generated LgLux variants were expressed in E. coli and tested in lysates. 20 uM of SmLux and 50 uM of substrate 1c was used for the screening.
LgLux_4039 sequence is as set forth in SEQ ID NO:2773. MBIO-5103 through MBIO-5124, MBIO-5261 through MBIO-5295, MBIO-5101, and MBIO-5102 (SEQ ID NO:2815-SEQ ID NO:2873, respectively) are computationally generated LgLux. The sequences and activity of these LgLux are shown below in Table 21.
MBIO-5358 and MBIO-5360 through MBIO-5381 (SEQ ID NO:2774-SEQ ID NO:2796, respectively) are computationally generated LgLux.

Molecule | Fold change upon SmLux peptide addition | Baseline Signal (Normalized by expression)
5284 (protein) MTPEERFANVRAFYEALASGDLEAAKALFDPGVTITLWDGTTFTSVEEFRAWFEEQFQTSKDALREIVDMEVEGDTVRVLVRLTFTRNGETQEVDLLQLFKFV | 5.16 | 186.8
5108 (protein) MTPEEIIENVKAFYAALASGDLEAAKALFDPGTTITLWDGTTFTSLEEFLEWFEKQFEASKDAKREIKSIEVEGNVVKVLVRLTYVKDGKEKVVDLLQLLKFV | 0.92 | 167.4
5111 (protein) MTPEEIRANVEAFYAALASGDLEAAKALFDPGTTITLWDGTTFTSLEEFLAWFEKQFETSKDAKREIVSLEIEGDTVRVLVRLTYTKNGEVKEVDLLQLLKFV | 1.01 | 166.2
5107 (protein) MTPEEIKANVEAFYAALASGDLEKAKALFDPGTTITLWDGTTFTSLEEFLAWFEKQFKASKDAKREIVSMKVEGDTVRVLVRLTYTKDGKEQVVDLLQLIKVV | 0.99 | 167.8
5109 (protein) MTPEEIRANVKAFYAALASGDLEKAKALFDPGTTITLWDGTTFTSLEEFLAWFEKQFKASKDAKREIVSMEINGDTVRVLVRLTYTVDGEEKVVDLLQLLKFV | 0.98 | 169
5112 (protein) MTPEEIRANVRAFYAALASGDLEAAKALFDPGTTITLWDGTTFTSLEEFLAWFEKQFKASKDAKREIVSLEVEGDVVRVLVRLTYVKDGKEEVVDLLQLLKFV | 0.93 | 174.4
5113 (protein) MTPEEIRANVEAFYAALASGDLEAAKALFDPGTTITLWDGTTFTSLEEFLAWFEKQFEASKDAKREILSLEIEGNTVRVLVRLTYTKDGKEQVVDLLQLLKFV | 1.15 | 180.6
5105 (protein) MTPEEIIANVKKFYEALASGDLATAKSLFDPGTTITLWDGTTFTSLEEFLAWFEKQFKASKDAKREIVSIEVDGNVVKVLVRLTYTVDGKEKVVDLLQLLKFV | 1 | 167.4
5114 (protein) MTPEEIIANVKNFYAALASGDLEAAKALFDPGTTITLWDGTTFTSLEEFLAWFEKQFKASKDAKREIVSMEVEGNVVKVLVRLTYTVDGEEKVVDLLQLLKFV | 1.38 | 271.8
5115 (protein) MTPEEIIANVKKFYAALASGDLETAKALFDPGTTITLWDGTTFTSLEEFLAWFEKQFEASKDAKREIVSIEVKGNTVKVLVRLTYVKDGKEQVVDLLQLLKFV | 3.07 | 165
5110 (protein) MTPEEIIENVKKFYEALASGDLETAKSLFDPGTTITLWDGTTFTSLEEFLEWFEKQFEASKDAKREILSIEVEGNVVKVLVRLTYTKDGKEKVVDLLQLLKFV | 0.97 | 167.6
5106 (protein) MTEEEIIANVEKFYAALASGDLETAKALFDPGTTITLWDGTTFTSLEEFLAWFEKQFKASKDAKREIVSIEVEGDTVKVLVRLTYTVDGKEKVVDLLQLLKFV | 1 | 169.8
5281 (protein) MTPEEIRANVEAFYAALASGDLEAAKSLFDPGVTITLWDGTTFTSVEEFRKWFEEQFKTSKDALREIVSMEIEGDTVRVLVRLTFVRDGKVEEVDLLQLFKFV | 3.02 | 125.6
5283 (protein) MTPEEIRANVERFYAALASGDLETAKALFDPGVTITLWDGTTFTSVEEFRKWFEEQFETSKDALREIVSMEVEGDTVRVLVRLTFVRNGEEKVVDLLQLFKFV | 1.14 | 141.4
5288 (protein) MTPEAIIANVKAFYAALASGDLAAAKALFDPGVTITLWDGTTFTSVEEFRAWFEEQFKTSKDALREIESMEVEGDTVRVLVRLTFVRDGKEEVVDLLQLFKFV | 1.6 | 170.8
5289 (protein) MTPEEIRANVERFYAALASGDLAAAKALFDPGVTITLWDGTTFTSVEEFRAWFEEQFQTSKDALREIVSMEIDGDTVRVLVRLTFVRDGEEQEVDLLQLFKFV | 1.92 | 173.8
5294 (protein) MTPEEIRANVRAFYAALASGDLEAAKALFDPGVTITLWDGTTFTSVEEFRAWFEEQFQTSKDALREIESLEVEGDVVRVLVRLTFTRDGKVEEVDLLQLFKFV | 1.46 | 175.2
5291 (protein) MTPEEIRENVRRFYAALASGDLETAKALFDPGVTITLWDGTTFTSVEEFRAWFEEQFQTSKDALREIVSMEIEGDVVRVLVRLTFVRDGKEEVVDLLQLFKFV | 1.02 | 170.2
5102 (protein) MSEEQIRQNLRRFYEALDSGDAITAASLFDPGVTITLWDGTTFTSVEEFREWFESQFSTSKDALREISSLEVRGDTVEVTVRLSFTRNGQKHTVDLLQLFKFVGNRVVADRVYVNPTG | 2.2 | 2169.2
5285 (protein) MTPEEIRANVERFYAALASGDWATAEALFDPGVTITLWDGTTFTSVAEFRAWFEEQFKTSKDALREIVSLEINGDVVRVLVRLTFTRDGKEEVVDLLQLFKFV | 1.26 | 188
5293 (protein) MTPEEIRANVRRFYAALASGDLATAEALFDPGVTITLWDGTTFTSVAEFRAWFEKQFKTSKDALREIESMEIEGDTVRVLVRLTFVRDGKEQVVDLLQLFKFV | 3.78 | 166.2
5282 (protein) MTPEEIIANVRAFYAALASGDLEAAKALFDPGVTITLWDGTTFTSVEEFRAWFEQQFQTSKDALREIVSIEVEGDVVRVLVRLTFVRDGEEQVVDLLQLFKFV | 1.18 | 131.8
5290 (protein) MTPEEIIENVRRFYAALASGDLETAKSLFDPGVTITLWDGTTFTSVEEFRAWFEAQFQTSKDALREIVSIEVEGDVVRVLVRLTFTRDGQTQEVDLLQLFKFV | 1.11 | 162.2
5292 (protein) MTPEEIIENVKNFYAALASGDLEKAKALFDPGVTITLWDGTTFTSVEEFRKWFEEQFKTSKDALREIKSIEVEGDVVRVLVRLTFVRDGEVQEVDLLQLFKFV | 6.75 | 168.6
5286 (protein) MTPEERIANVRAFYAALASGDLEAAKALFDPGVTITLWDGTTFTSVEEFRAWFEEQFKTSKDALREIESIEVDGDTVRVLVRLTFVRDGEEKVVDLLQLFKFV | 33.33 | 196
5287 (protein) MTPEAIRENVRAFYAALASGDWAAAKALFDPGVTITLWDGTTFTSVEEFRAWFEKQFKTSKDALREIVSMEVEGDVVRVLVRLTFVRDGKEQVVDLLQLFKFV | 1.1 | 174.8
5295 (protein) MTPEEIRANVRAFYAALASGDLAAAKALFDPGVTITLWDGTTFTSVEEFRAWFEEQFETSKDALREIVSMEVEGDTVRVLVRLTFTRNGEEKVVDLLQLFKFV | 1.28 | 186.4
5101 (protein) MSEEQIRQNLRRFYEALDSGDAITAASLFDPGVTITLWDGTTFTSVEEFREWFESQFSTSKDALREISSLEVRGDTVEVTVRLSFTRNGQKHTVDLLQLFKFVGGGGGGNRVVADRVYVNPTG | 0.87 | 229.6

Reference: patent publication US20260250737A1, “Engineered Luciferases and Luciferin Substrates” (Monod Bio, Inc., priority 2023, published 2026)
